This is an account of results in patent US20150344570A1 (published 2015).

Changes are numbered by the printed parent chain. Names and notes keep the numbering of the source.

One experiment addresses T1, FcgRIIa R (human, UniProt P12318 34-217).
T1 construct: extracellular domain; also called FcγRIIa R; FcγRIIa type R
T1 sequence (looked up): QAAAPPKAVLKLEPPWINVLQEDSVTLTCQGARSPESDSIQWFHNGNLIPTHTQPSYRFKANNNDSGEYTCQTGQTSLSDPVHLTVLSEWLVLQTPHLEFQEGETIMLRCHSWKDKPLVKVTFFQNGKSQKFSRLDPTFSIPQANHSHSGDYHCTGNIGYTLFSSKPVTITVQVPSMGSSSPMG
As to the kind of experiment: SPR (Biacore), antibody captured, FcgR as analyte. As for the experimental part:
(§1) Then, H240-Hl136 (SEQ ID NO: 97) resulting from introduction of L234Y/L235Y/G236W/H268D/S298A/A327D into H240-Hl033 and H240-Kn133 (SEQ ID NO: 98) resulting from introduction of D270E/K326D/A330K/K334E into H240-Kn033 were constructed according to the method described in Reference Example 1.
(§2) Analysis of interaction between objective antibody and the FcγR was carried out using Biacore T100 (GE Healthcare), Biacore T200, Biacore A100, and Biacore 4000. HBS-EP+ (GE Healthcare) was used as the running buffer, and the measurement temperature was set to 25° C. Chips produced by immobilizing the antigen peptide by the amine coupling method to a Series S sensor Chip CM5 (GE Healthcare), chips produced by allowing preliminarily biotinylated antigen peptides to interact with and immobilize onto a Series S Sensor Chip SA (certified) (GE Healthcare), chips produced by immobilizing Protein L (ACTIGEN, BioVision) to Series S Sencor Chip CM5 (GE Healthcare), or chips produced by immobilizing Protein A/G (Thermo Scientific) to Series S Sencor Chip CM5 (GE Healthcare) were used. Antibodies of interest were captured onto these chips, and allowed to interact to each FcγR diluted with running buffer.

The target of the next experiment is T2, FcgRIIa H (human, UniProt P12318 34-217).
T2 construct: extracellular domain; also called FcγRIIa H; FcγRIIa type H
T2 sequence (looked up): T1 sequence (looked up) with R134H
The experiment in a line: SPR (Biacore), antibody captured, FcgR as analyte. As for the experimental part:
as §1, §2

The target in a further experiment is T3, FcgRIIIa F (human, UniProt P08637 17-208).
T3 construct: extracellular domain; polymorphic site made after J. Clin. Invest; also called FcγRIIIa F
As to the kind of experiment: SPR (Biacore), antibody captured, FcgR as analyte. As for the experimental part: as §1, §2

Another experiment addresses T4, FcgRIIIa V (human, UniProt P08637 17-208).
T4 construct: extracellular domain; polymorphic site made after J. Clin. Invest; also called FcγRIIIa V
As to the kind of experiment: SPR (Biacore), antibody captured, FcgR as analyte. As for the experimental part:
as §1, §2

Experiment [1] has as its target T5, FcgRIIb (human, UniProt P31994 43-217).
T5 construct: extracellular domain; Soluble extracellular domain with C-terminal His tag, expressed in FreeStyle293 cells; also called FcγRIIb; 2b; not shown: His tag at the C terminus
T5 sequence (looked up): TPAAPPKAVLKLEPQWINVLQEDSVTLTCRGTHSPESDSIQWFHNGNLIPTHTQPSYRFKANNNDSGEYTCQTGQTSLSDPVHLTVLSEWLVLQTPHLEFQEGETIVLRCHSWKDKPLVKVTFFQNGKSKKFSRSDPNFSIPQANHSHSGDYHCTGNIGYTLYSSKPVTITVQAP
As to the kind of experiment: SPR (Biacore); KD of the variant for FcgRIIaR divided by its KD for FcgRIIb.

Experiment [2] addresses T5, FcgRIIb. As to the kind of experiment: SPR (Biacore), antibody captured on chip, FcgR extracellular domain as analyte.
The next experiment addresses T6, FcgRIIaR (human, UniProt P12318 34-217).
T6 construct: extracellular domain; Soluble extracellular domain with C-terminal His tag, expressed in FreeStyle293 cells; also called FcγRIIa R; FcgRIIa type R; not shown: His tag at the C terminus
T6 sequence (looked up): T1 sequence (looked up)
The experiment is described as above.

The target of a further experiment is T7, FcgRIIaH (human, UniProt P12318 34-217).
T7 construct: extracellular domain; Soluble extracellular domain with C-terminal His tag, expressed in FreeStyle293 cells; also called FcγRIIa H; FcgRIIa type H; not shown: His tag at the C terminus
T7 sequence (looked up): T1 sequence (looked up) with R134H
The experiment is described as above.

T4 sequence (P08637 17-208 F176V limits assumed): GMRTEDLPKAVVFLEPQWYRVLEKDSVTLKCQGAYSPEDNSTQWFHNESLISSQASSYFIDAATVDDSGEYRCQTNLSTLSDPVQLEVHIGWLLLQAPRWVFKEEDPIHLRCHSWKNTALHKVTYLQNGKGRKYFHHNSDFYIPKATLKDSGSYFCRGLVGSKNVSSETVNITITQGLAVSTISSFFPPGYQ
T3 sequence (P08637 17-208): as the sequence (P08637 17-208 F176V limits assumed) above, with V160F counted along it

B1: H240-Kn067/H240-Hl136/L73-k0 (antibody, human IgG1, kappa)
heavy 1: QDQLVQSGAEVKKPGASVKVSCKASGFNIKDTYIQWVRQAPGQGLEWMGRIDPLRKQTKYREKFEGRVTITADTSTNTAYMELSSLRSEDTAVYYCVRSGREFDYWGQGTLVTVSSASTKGPSVFPLAPSSKSTSGGTAALGCLVKDYFPEPVTVSWNSGALTSGVHTFPAVLQSSGLYSLSSVVTVPSSSLGTQTYICNVNHKPSNTKVDKKVEPKSCDKTHTCPPCPAPEYYWGPSVFLFPPKPKDTLMISRTPEVTCVVVDVSDEDPEVKFNWYVDGVEVHNAKTKPREEQYNATYRVVSVLTVLHQDWLNGKEYKCKVSNKDLPAPIEKTISKAKGQPREPQVCTLPPSRDELTKNQVSLWCLVKGFYPSDIAVEWESNGQPENNYKTTPPVLDSDGSFFLYSKLTVDKSRWQQGNVFSCSVMHEALHNHYTQKSLSLSP
heavy 2: B1 heavy 1 with C348Y, D355C, W365S, L367A, Y406V
light: DIQMTQSPSSLSASVGDRVTITCRASQDIHKYIAWYQQKPGQAPRLLIQYTSTLQPGVPSRFSGSGSGTDYTFTISSLQPEDIATYYCLQYEQLRTFGGGTKVEIKRTVAAPSVFIFPPSDEQLKSGTASVVCLLNNFYPREAKVQWKVDNALQSGNSQESVTEQDSKDSTYSLSSTLTLSKADYEKHKVYACEVTHQGLSSPVTKSFNRGEC
notes: Called homodimerized: both H chains have L234Y/L235Y/G236W/H268D/S298A/A327D
For the molecule B1, the Kd turned out to be 950 nM in the experiment with FcgRIIa R, 2100 nM with FcgRIIa H, 960 nM with FcgRIIIa F and 340 nM with FcgRIIIa V.

B2: H240-Kn133/H240-Hl068/L73-k0 (antibody, human IgG1, kappa)
heavy 1: B1 heavy 1 with Y233L, Y234L, W235G, D267H, D269E, A297S, K325D, D326A, A329K, K333E
heavy 2: QDQLVQSGAEVKKPGASVKVSCKASGFNIKDTYIQWVRQAPGQGLEWMGRIDPLRKQTKYREKFEGRVTITADTSTNTAYMELSSLRSEDTAVYYCVRSGREFDYWGQGTLVTVSSASTKGPSVFPLAPSSKSTSGGTAALGCLVKDYFPEPVTVSWNSGALTSGVHTFPAVLQSSGLYSLSSVVTVPSSSLGTQTYICNVNHKPSNTKVDKKVEPKSCDKTHTCPPCPAPELLGGPSVFLFPPKPKDTLMISRTPEVTCVVVDVSHEEPEVKFNWYVDGVEVHNAKTKPREEQYNSTYRVVSVLTVLHQDWLNGKEYKCKVSNDALPKPIEETISKAKGQPREPQVYTLPPSRCELTKNQVSLSCAVKGFYPSDIAVEWESNGQPENNYKTTPPVLDSDGSFFLVSKLTVDKSRWQQGNVFSCSVMHEALHNHYTQKSLSLSP
light: B1 light
notes: Called homodimerized: both H chains have D270E/K326D/A330K/K334E
For the molecule B2, the Kd in the experiment with FcgRIIa R turned out to be 450 nM; with FcgRIIa H it was 160 nM; with FcgRIIIa F it was 120 nM; with FcgRIIIa V it was 14 nM.

B3: IL6R-BP253/IL6R-L (antibody, human IgG1, kappa)
heavy: QVQLQESGPGLVKPSETLSLTCAVSGHSISHDHAWSWVRQPPGEGLEWIGFISYSGITNYNPSLQGRVTISRDNSKNTLYLQMNSLRAEDTAVYYCARSLARTTAMDYWGEGTLVTVSSASTKGPSVFPLAPSSKSTSGGTAALGCLVKDYFPEPVTVSWNSGALTSGVHTFPAVLQSSGLYSLSSVVTVPSSSLGTQTYICNVNHKPSNTKVDKKVEPKSCDKTHTCPPCPAPELLGGPSVFLFPPKPKDTLMISRTPEVTCVVVDVEHEDPEVKFNWYVDGVEVHNAKTKPREEQYNSTYRVVSVLTVLHQDWLNGKEYKCKVSNKAFPAPIEKTISKAKGQPREPQVYTLPPSRDELTKNQVSLTCLVKGFYPSDIAVEWESNGQPENNYKTTPPVLDSDGSFFLYSKLTVDKSRWQQGNVFSCSVMHEALHNHYTQESLSLSP
light: not shown
notes: Homodimerized antibody
As for B3, the “KD(IIaR)/KD(IIb)” value with FcgRIIb [1] was 0.3. For the same molecule, the entries for the “Relative KD (KD of IL6R-B3/IL6R-L divided by KD of the variant)” value with FcgRIIb [2], with FcgRIIaR and with FcgRIIaH were 349, 480 and 0.9, respectively.

B4: IL6R-AP002/IL6R-BP256/IL6R-L (antibody, human IgG1, kappa)
heavy 1: QVQLQESGPGLVKPSETLSLTCAVSGHSISHDHAWSWVRQPPGEGLEWIGFISYSGITNYNPSLQGRVTISRDNSKNTLYLQMNSLRAEDTAVYYCARSLARTTAMDYWGEGTLVTVSSASTKGPSVFPLAPSSKSTSGGTAALGCLVKDYFPEPVTVSWNSGALTSGVHTFPAVLQSSGLYSLSSVVTVPSSSLGTQTYICNVNHKPSNTKVDKKVEPKSCDKTHTCPPCPAPDLLGDDSVFLFPPKPKDTLMISRTPEVTCVVVDVSDEDGEVKFNWYVDGVEVHNAKTKPREEQYNSTYRVVSVLTVLHQDWLNGKEYKCKVSNKALPRPIEKTISKAKGQPREPQVYTLPPSRKELTKNQVSLTCLVKGFYPSDIAVEWESNGQPENNYKTTPPVLDSDGSFFLYSKLTVDKSRWQQGNVFSCSVMHEALHNRYTQKSLSLSP
heavy 2: B4 heavy 1 with S241D, K358D, R437H, K441E
light: not shown
notes: Heterodimerized antibody (two different H chains, same variable region), S239D in one H chain only
As to B4, in the experiment with FcgRIIb [1], the “KD(IIaR)/KD(IIb)” value stood at 34.3. Also, the “Relative KD (KD of IL6R-B3/IL6R-L divided by KD of the variant)” value in the experiment with FcgRIIb [2] worked out at 752; in the experiment with FcgRIIaR it was 7.7; with FcgRIIaH it was 0.2.

B5: IL6R-AP002/IL6R-BP257/IL6R-L (antibody, human IgG1, kappa)
heavy 1: B4 heavy 1
heavy 2: B4 heavy 1 with S241E, K358D, R437H, K441E
light: not shown
notes: Heterodimerized antibody (two different H chains, same variable region), S239E in one H chain only
As for B5, the “KD(IIaR)/KD(IIb)” value in the experiment with FcgRIIb [1] came to 27.7. Further, the entries for the “Relative KD (KD of IL6R-B3/IL6R-L divided by KD of the variant)” value in the experiment with FcgRIIb [2], in the experiment with FcgRIIaR and with FcgRIIaH were 657, 8.3 and 0.2, respectively.
